In patent WO2022250107A1 (dated 2022):

Biological target: S protein of SARS-CoV-2 wild strain JPN/TY/WK-521 (on infectious virus) (SARS-CoV-2, UniProt P0DTC2 14-1273)
Experiment: cell-based or functional assay

B1: EV053273 (antibody, V domains shown)
VH: QVQLVQSGAEVKEPGTSVKVSCKASGYIFTGYYIHWVRQAPGQGLEWMGWINPNSGGRNYTQKFQGRVTMTRDKSISTVYMELSGLRSDDTAIYYCARDNSWSTVQFCLDYWGQGTLVTVSS
VL: QSALTQPPSASGSPGQSVTISCTGTSSDVGSYNYVSWYQQYPGKAPKLMIYEVSKRPSGVPDRFSGSKSGNTASLTVSGLQAEDEADYYCSSYGGSNNLVFGGGTKLTVLG
- 中和活性 IC50 (inhibition of infection of VeroE6/TMPRSS2 cells): ≤ 10 ng/mL
